Experimental data from publication PMC12190498, “Improving the Catalytic Activity and Thermostability of FAST-PETase with a Multifunctional Short Peptide” (Biomolecules, 2025).

Substrate: CCCC(=O)Oc1ccc([N+](=O)[O-])cc1
Test: purified protein
Type: biochemical, Pseudideonella sakaiensis
[1] = 50 mM potassium phosphate pH 7.5, 50°C or 55°C (50°C is the optimum of this enzyme)
[2] = 50 mM potassium phosphate pH 7.5, 50°C or 55°C (55°C is the optimum of this enzyme)

B1: FAST-PETase (Pseudideonella sakaiensis; D186H/N233K/R224Q/R280A/S121E) (protein)
chain: QTNPYARGPNPTAASLEASAGPFTVRSFTVSRPSGYGAGTVYYPTNAGGTVGAIAIVPGYTARQSSIKWWGPRLASHGFVVITIDTNSTLDQPESRSSQQMAALRQVASLNGTSSSPIYGKVDTARMGVMGWSMGGGGSLISAANNPSLKAAAPQAPWHSSTNFSSVTVPTLIFACENDSIAPVNSSALPIYDSMSQNAKQFLEIKGGSHSCANSGNSNQALIGKKGVAWMKRFMDNDTRYSTFACENPNSTAVSDFRTANCS
notes: FAST-PETase, C-terminal 6xHis, pET28a, E. coli Origami 2(DE3), Ni-NTA
Km [1]: 880 ± 160 µM | kcat [1]: 0.724 ± 0.0532 s⁻¹ | kcat/Km [1]: 824 ± 112 M⁻¹ s⁻¹

B2: FAST-PETase-S1v1 (Pseudideonella sakaiensis; D186H/N233K/R224Q/R280A/S121E) (protein)
chain: QTNPYARGPNPTAASLEASAGPFTVRSFTVSRPSGYGAGTVYYPTNAGGTVGAIAIVPGYTARQSSIKWWGPRLASHGFVVITIDTNSTLDQPESRSSQQMAALRQVASLNGTSSSPIYGKVDTARMGVMGWSMGGGGSLISAANNPSLKAAAPQAPWHSSTNFSSVTVPTLIFACENDSIAPVNSSALPIYDSMSQNAKQFLEIKGGSHSCANSGNSNQALIGKKGVAWMKRFMDNDTRYSTFACENPNSTAVSDFRTANCS
notes: artificial peptide S1v1 (AEAEAHAH)2 fused to C-terminus via PT-linker …, C-terminal 6xHis, E. coli Origami 2(DE3), Ni-NTA
Km [2]: 1220 ± 180 µM | kcat [2]: 1.36 ± 0.0918 s⁻¹ | kcat/Km [2]: 1110 ± 138 M⁻¹ s⁻¹

B3: S1v1-FAST-PETase (Pseudideonella sakaiensis; D186H/N233K/R224Q/R280A/S121E) (protein)
chain: QTNPYARGPNPTAASLEASAGPFTVRSFTVSRPSGYGAGTVYYPTNAGGTVGAIAIVPGYTARQSSIKWWGPRLASHGFVVITIDTNSTLDQPESRSSQQMAALRQVASLNGTSSSPIYGKVDTARMGVMGWSMGGGGSLISAANNPSLKAAAPQAPWHSSTNFSSVTVPTLIFACENDSIAPVNSSALPIYDSMSQNAKQFLEIKGGSHSCANSGNSNQALIGKKGVAWMKRFMDNDTRYSTFACENPNSTAVSDFRTANCS
notes: artificial peptide S1v1 (AEAEAHAH)2 fused to N-terminus via PT-linker …, C-terminal 6xHis, E. coli Origami 2(DE3), Ni-NTA
Km [2]: 860 ± 150 µM | kcat [2]: 0.581 ± 0.0392 s⁻¹ | kcat/Km [2]: 679 ± 72.2 M⁻¹ s⁻¹
